Laboratory results taken from FireProtDB (doi:10.1021/bi00454a022).
Values joined by “and” are separate entries in the source; they are usually repeats but may differ in a detail not shown here. Identical values can stand only once.

Settings: Bos taurus; pH 7; 25 °C; GdnHCl; CD; Sodium phosphate 20 mM; reversible: yes; whole UniProt chain shown

B1: Gamma-crystallin B wild type, P02526 (protein)
chain: MGKITFYEDRGFQGHCYECSSDCPNLQPYFSRCNSIRVDSGCWMLYERPNYQGHQYFLRRGDYPDYQQWMGFNDSIRSCRLIPQHTGTFRMRIYERDDFRGQMSEITDDCPSLQDRFHLTEVHSLNVLEGSWVLYEMPSYRGRQYLLRPGEYRRYLDWGAMNAKVGSLRRVMDFY
Which denaturant m value does the source give for B1 here?
Its denaturant m value is 1.3 kcal/mol/M.

And the unfolding free energy?
The unfolding free energy was 5.2 kcal/mol and 6.5 kcal/mol.
